For experiment [1], the target named is T1, Control Ig (recombinant mouse IgG2a Fc protein) (mouse, UniProt P01863 98-330 = IgG part, limits assumed).
T1 construct: domain: Fc; Bought control protein; also called control mouse IgG2a Fc; control Ig protein
The experiment in a line: ELISA screen of hybridomas.

Experiment [2] concerns the target T2, Human CD300c-Ig fusion protein (human).
T2 construct: also called hCD300c-Ig; hCD300-Ig
T2 chain: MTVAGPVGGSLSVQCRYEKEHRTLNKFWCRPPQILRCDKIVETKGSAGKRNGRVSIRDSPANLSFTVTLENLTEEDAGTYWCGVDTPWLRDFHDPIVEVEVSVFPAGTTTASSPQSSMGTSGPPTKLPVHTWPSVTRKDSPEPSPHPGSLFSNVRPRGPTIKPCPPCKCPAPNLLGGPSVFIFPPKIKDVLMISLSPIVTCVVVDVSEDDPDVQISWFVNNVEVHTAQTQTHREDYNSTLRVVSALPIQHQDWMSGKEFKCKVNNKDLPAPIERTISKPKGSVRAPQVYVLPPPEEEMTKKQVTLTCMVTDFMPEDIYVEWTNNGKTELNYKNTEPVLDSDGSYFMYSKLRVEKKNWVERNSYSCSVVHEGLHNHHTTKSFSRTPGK
The experiment in a line: ELISA screen of hybridomas. For orientation: ELISA stands for enzyme-linked immunosorbent assay.

Experiment [3] concerns the target T3, mouse PD-1 on transfected HEK-293 cells (mouse, UniProt Q02242 25-288).
T3 construct: whole, on cells
T3 sequence (looked up): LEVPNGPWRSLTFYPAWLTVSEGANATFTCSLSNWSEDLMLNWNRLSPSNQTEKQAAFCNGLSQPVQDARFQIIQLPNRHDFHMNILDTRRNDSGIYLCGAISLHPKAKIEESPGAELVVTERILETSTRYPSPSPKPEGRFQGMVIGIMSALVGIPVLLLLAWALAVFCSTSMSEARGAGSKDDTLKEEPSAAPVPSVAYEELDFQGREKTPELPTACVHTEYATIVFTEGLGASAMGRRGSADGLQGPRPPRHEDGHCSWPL
The experiment in a line: flow cytometry, biotinylated mCD300c2-Ig on transfected HEK-293 cells. Here is the method: (§1) To determine whether mCD300c binds to molecules previously identified as receptors of the known B7 family members, HEK-293 cells were transfected with an expression vector containing the mouse CD28. CTLA4, PD-1, BTLA or ICOS gene. The expression of these receptors on the transfected 293 cells was confirmed by flow cytometric analysis with the antibodies against the respective receptors (FIG. 5C). The binding of mCD300c to the transfected HEK-293 cells was then analyzed.
(Flow cytometry measures light scatter and fluorescence of single cells or particles in a stream.)

Experiment [4] concerns the target T4, mouse CD28 on transfected HEK-293 cells (mouse, UniProt P31041 20-218).
T4 construct: whole, on cells
T4 sequence (looked up): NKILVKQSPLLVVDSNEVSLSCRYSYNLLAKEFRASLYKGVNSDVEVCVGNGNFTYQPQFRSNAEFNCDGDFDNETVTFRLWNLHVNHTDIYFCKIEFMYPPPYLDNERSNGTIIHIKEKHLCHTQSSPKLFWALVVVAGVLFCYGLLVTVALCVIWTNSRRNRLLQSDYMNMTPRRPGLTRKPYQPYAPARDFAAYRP
Described as above. Here is the method: as §1

In experiment [5] the target is T5, mouse BTLA on transfected HEK-293 cells (mouse, UniProt Q7TSA3 30-306).
T5 construct: whole, on cells
T5 sequence (looked up): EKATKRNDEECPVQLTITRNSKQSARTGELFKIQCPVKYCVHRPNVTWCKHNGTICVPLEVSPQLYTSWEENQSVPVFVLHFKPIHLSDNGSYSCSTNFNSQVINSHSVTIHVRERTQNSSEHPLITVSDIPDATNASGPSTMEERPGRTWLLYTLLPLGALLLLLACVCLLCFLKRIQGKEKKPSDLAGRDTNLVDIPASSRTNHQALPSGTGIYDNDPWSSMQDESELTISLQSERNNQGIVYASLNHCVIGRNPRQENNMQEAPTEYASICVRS
Described as above. Here is the method: as §1

In experiment [6] the target is T6, mouse ICOS on transfected HEK-293 cells (mouse, UniProt Q9WVS0 21-200).
T6 construct: whole, on cells
T6 sequence (looked up): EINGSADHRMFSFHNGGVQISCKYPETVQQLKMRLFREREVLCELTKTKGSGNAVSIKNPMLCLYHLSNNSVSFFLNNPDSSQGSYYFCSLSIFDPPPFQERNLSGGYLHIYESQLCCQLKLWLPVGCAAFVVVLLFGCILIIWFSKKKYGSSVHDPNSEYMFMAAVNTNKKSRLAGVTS
The experiment is described as above. Here is the method: as §1

Experiment [7] addresses T7, mouse CTLA-4 on transfected HEK-293 cells (mouse, UniProt P09793 36-223).
T7 construct: whole, on cells
Described as above. Here is the method: as §1

Experiment [8] has as its target T3, mouse PD-1 on transfected HEK-293 cells. The experiment in a line: flow cytometry, biotinylated mBTN5-Ig and streptavidin-PE on transfected HEK-293 cells. Here is the method: (§2) FIG. 20. The expression pattern of the mBTN5 putative receptor. (A) Splenocytes from C57BL/6 mice were freshly harvested and analyzed for resting immune cells. For T cell activation, splenocytes were incubated with anti-CD3 (1 μg/ml) and anti-CD28 (0.5 μg/ml) antibodies for 3 days. For the activation of B cells, DCs and monocytes, splenocytes were incubated with LPS (10 μg/ml) for 3 days. The resting and active immune cells were stained with anti-CD4, CD8, B220, CD11c, or CD11b antibodies, and biotinylated mBTN5-Ig or control Ig, followed by streptavidin-PE. Representative flow cytometric profiles showing the binding of mBTN5-Ig or control Ig to resting and activated immune cells. (B, C) HEK-293 cells were transfected with an expression vector containing murine PD-1, CD28, BTLA, CTLA-4, or ICOS gene. The transfected cells were stained with (B) antibodies against the respective PD-1, CD28, BTLA, CTLA-4, or ICOS protein, (C) biotinylated mBTN5-Ig or control Ig, followed by streptavidin-PE. Representative flow cytometric profiles showing the binding of (B) the antibodies or (C) mBTN5-Ig to the transfected cells. Representative of 3 independent experiments.

Experiment [9] concerns the target T4, mouse CD28 on transfected HEK-293 cells. The experiment is described as above. Here is the method: as §2
In experiment [10] the target is T5, mouse BTLA on transfected HEK-293 cells. The experiment is described as above. Here is the method:
as §2

In experiment [11] the target is T6, mouse ICOS on transfected HEK-293 cells. The experiment is described as above. Here is the method: as §2
In experiment [12] the target is T7, mouse CTLA-4 on transfected HEK-293 …. The description is as above. Here is the method: as §2

These results are taken from patent US20210206849A1 (UNIVERSITY OF CONNECTICUT, published 2021).

B1: anti-hTAPBPL mAb (clone 54) (antibody, V domains shown)
VH: DVQLQESGPGLVKPSQTLSLTCSVTGYSLTSGYFWHWIRQFPGNKLEWMGYISYSGTTNYNPSLKNRISITHDSSKNQFFLNLNSVTAEDTATYFCAGDDWDWFAYWGQGTLVTVSA
VL: ENVLTQSPAIMSASPGEKVTMTCSASSSVNYMHWYQQKSSTSPKLWIYDTSKLASGVPGRFSGSGSGNSYSLTISSMEAEDVATYYCFQGSGYPLTFGSGTKLEIK
notes: Mouse hybridoma mAb; also called anti-TAPBPL mAb
Regarding B1, the binding result in experiment [1] was “no binding”.

B2: anti-hCD300c mAb (clone B47-1D2) (antibody, V domains shown)
VH: QIQLVQSGPELRKPGETVKISCKASGYTFTIYGMNWMKQAPGKGLKWMGWINTYTGEPTYADDFKGRFAFSLETSASTAFLQINNLTNEDTATYFCARSRFAYWGQGTLVTVSA
VL: DIVMTQSQKFMSTSVGDRVSVTCKASQNVGTNVAWYQQKPGQSPKALIYSASYRYSGVPDRFTGSRSGTDFTLTISNVQSEDLAEYVCQQYNSYPLTFGAGTKLELK
notes: Mouse hybridoma mAb; also called anti-CD300c mAb
B2: the binding result in [1] is given as “no binding”; in experiment [2], “binds”.

B3: mCD300c2-Ig fusion protein (Fc fusion)
chain: CVPLHGPSTITGTVGKSLSVSCQYEEKFKTKDKFWCRGSLKVLCKDIVKTSSSEEVRNGRVTIRDHPDNLTFTVTYESLTLEDADTYMCAVDISLFDGSLGFDKYFKIELSVVPSEDPVTGSSLESGRDILESPTSSVGHTHPSVTTDDTIPTPCPQPRSLRSSLYFRVLVS
modifications: biotinylated with sulfo-NHS-LC-Biotin for flow cytometry (sites not given)
notes: Made in HEK293F cells; also called mCD300c-Ig; not shown: constant region of mouse IgG2a from the pCMV6-AC-FC-S expression vector (ORIGENE)
For the molecule B3, the binding result in [3], in [4], in experiment [5], in experiment [6] and in [7] was “no binding” in each case.

B4: mBTN5-Ig fusion protein (Fc fusion)
chain: QPPVQVLGDAGKVYIAPLRDTANLPCPLFLWPNMVLSEMRWYRPGHLPRTQAVHVFRDGQDRDEDLMPEYKGRTALVRDAHKESYILQISNVRLEDRGLYQCQVWVGNS
modifications: biotinylated with sulfo-NHS-LC-Biotin (sites not given)
notes: Made in HEK-293 cells; not shown: constant region of mouse IgG2a from the pCMV6-AC-FC-S expression vector (ORIGENE)
Regarding B4, the binding result in experiment [8], in experiment [9], in [10], in [11] and in experiment [12] was “no binding” each time.
